# Source: US12129294B2, “Methods of treatment of diseases in which IL-13 activity is detrimental using anti-IL-13 antibodies” (AbbVie Inc., priority 2016, dated 2024)
# B1: RPC4046: recombinant humanized, high-affinity, selective anti-IL-13 monoclonal antibody; heavy chain variable region SEQ ID NO: 2, light chain variable region SEQ ID NO: 3 (antibody, V domains shown)
# VH: EVTLRESGPGLVKPTQTLTLTCTLYGFSLSTSDMGVDWIRQPPGKGLEWLAHIWWDDVKRYNPALKSRLTISKDTSKNQVVLKLTSVDPVDTATYYCARTVSSGYIYYAMDYWGQGTLVTVSS
# VL: DIQMTQSPSSLSASVGDRVTISCRASQDIRNYLNWYQQKPGKAPKLLIFYTSKLHSGVPSRFSGSGSGTDYTLTISSLQPEDIATYYCQQGNTLPLTFGGGTKVEIK
# Assays:
# [1] = test system: subjects with symptomatic eosinophilic esophagitis (EoE); assay: Phase 2 study in EoE patients: peak esophageal eosinophil count; assay type: in vivo, human; conditions: for peak esophageal eosinophil count, Mean change / peak esophageal eosinophil count, LSMD versus placebo: Change to Week 16; for peak esophageal eosinophil count, LSMD versus placebo: ANCOVA
# Text: North America and Switzerland. […] Safety was monitored throughout the study. […] The study was powered for the primary endpoint. […] To maximize consistency, biopsies were obtained from proximal and distal esophagus (i.e., 4 biopsy fragments from each level) at screening. Additional biopsies from mid-esophagus was encouraged and effort was made to obtain subsequent biopsies from the same levels. The biopsies were blinded and read by single central pathologist. To be eligible for trial, subjects were evaluated for peak eosinophil count of ≥15/HPF, from 2 of 3 (proximal, mid-, and/or distal) levels of the esophagus at the screening endoscopy. Next, the effectiveness of RPC4046 (over placebo) in lowering peak esophageal eosinophil count in EoE subjects at week 16 was analyzed.
# [2] = test system: subjects with symptomatic eosinophilic esophagitis (EoE); assay: Phase 2 study in EoE patients: EoE endoscopic reference score (EREF); assay type: in vivo, human; conditions: treatment with RPC4046
# Description: Safety was monitored throughout the study. […] The study was powered for the primary endpoint.
# In further analysis, the mean eosinophilic esophagitis endoscopic reference score (EREF) in subjects at week 16 was analyzed for placebo and the two treatment arms. The EREF score is an additional secondary endpoint that is evaluated based on the presence of inflammatory markers (e.g., being positive for edema, exudates and/or furrows) and/or remodeling markers (e.g., being positive for fixed rings and/or strictures).
# The results of the EREF study was further inspected by analyzing composite EREF score for inflammatory markers or remodeling markers.
# [3] = test system: other cytokines; assay: Binding of the antibody to other cytokines
molecule,measurement,setting,value
B1,"peak esophageal eosinophil count, Mean","[1]; 180 mg, Baseline",131.9 cells/hpf
same,"peak esophageal eosinophil count, Median","[1]; 180 mg, Baseline",113.0 cells/hpf
same,"peak esophageal eosinophil count, Mean change",[1]; 180 mg,−106.6 cells/hpf
same,"peak esophageal eosinophil count, LSMD versus placebo",[1]; 180 mg,−80.6 cells/hpf
same,"peak esophageal eosinophil count, Mean","[1]; 180 mg, Week 16",28.9 cells/hpf
same,"peak esophageal eosinophil count, Median","[1]; 180 mg, Week 16",15.0 cells/hpf
same,"peak esophageal eosinophil count, Mean","[1]; 360 mg, Baseline",139.4 cells/hpf
same,"peak esophageal eosinophil count, Median","[1]; 360 mg, Baseline",132.0 cells/hpf
same,"peak esophageal eosinophil count, Mean change",[1]; 360 mg,−111.3 cells/hpf
same,"peak esophageal eosinophil count, LSMD versus placebo",[1]; 360 mg,−79.8 cells/hpf
same,"peak esophageal eosinophil count, Mean","[1]; 360 mg, Week 16",31.3 cells/hpf
same,"peak esophageal eosinophil count, Median","[1]; 360 mg, Week 16",15.0 cells/hpf
same,lowering of esophageal eosinophil counts over placebo at week 16,[1]; both low (180 mg) and high dose (360 mg),achieved statistical significance
same,EREF total score at week 16,[2],net lowering of EREF score
same,binding to other cytokines,[3],does not bind to other cytokines
